Data published in US20260137802A1 (CRISPR THERAPEUTICS, published 2026).

B1: P-0031 (Fc fusion)
chain: EVQLVESGGGLVRAGGSLRLSCAASGRTFTYDARAWFRQAPGKEREFVAAISWSGGSTYYPNSMKGRFTISRDNAKNTVYLQMNSLKPEDTAVYYCAADESFPAYYSDYALYRYWGQGTLVTVSS
notes: Any second Fc chain without VHH is not described in the text; also called monovalent form of P31; not shown: Fc fragment
B2: P-0035 (Fc fusion)
chain: QVQLVESGGGLVQAGGSLRLSCAASGGTFSIYPVGWFRQAPGKQREFVAAIGWSASGTYYGDSVEGRFTVSRDNARSTVYLRMSSLKPDDTAVYYCAAASGSNWRLGAIDEYDSWGQGTQVTVSS
notes: Any second Fc chain without VHH is not described in the text; also called monovalent form of P35; not shown: Fc fragment
B3: P-0037 (Fc fusion)
chain: QVQLVESGGGLVQAGDSLRLSCAVSGRTLSNYFMAWLRQAPGKEREFVAAIHWSLGSTYYQDPVKGRFTISRDKAKNTVYLQMNTLKPEDTATYICAAGQHLSGLGGSAWSIEGDYWGQGTQVTVSS
notes: Any second Fc chain without VHH is not described in the text; also called monovalent form of P37; not shown: Fc fragment
B4: P-0038 (Fc fusion)
chain: EVQLVESGGGLVQAGGSLRLSCAASGRTSGSYVMGWFRQAPGKEREFVAAISWSAGMTYYADSVKGRFTISRDNAKNTVYLQMNSLKPEDTAVYYCAADQRGVPAYYSDYALYDYWGQGTQVTVSS
notes: Any second Fc chain without VHH is not described in the text; also called monovalent form of P38; not shown: Fc fragment
B5: P37 (VHH)
VHH: B3 chain
notes: also called P37/P58; anti-CD117 VHH P37
B6: P29 (VHH)
VHH: QVHLVESGGGLVQAGGSLGLSCAASGHTFSNYAMGWFRQAPGKEREFVAAISWSGGSTLYADSVKGRFTISRDNGENTVYLQMNSLKPEDTAVYYCALDSTGVYGTGYVSSRKGRYEYWGQGTLVTVSS
notes: also called P29/P54; anti-CD117 VHH P29

Columns and labels:
human CD117 ectodomain [1] = molecular target: T1, human CD117 ectodomain (human, UniProt P10721 26-524, biotinylated (BirA co-expression) where captured on streptavidin biosensors); test: BLI (Octet), biotinylated ectodomain on SA biosensor, 1:1 global fit, monomeric Fc
T1 construct: extracellular domain; also called cKIT; full length AviTagged CD117 ectodomain; not shown: C-terminal AviTag or His tag
Text: Pre-equilibrated streptavidin biosensors (SA, from Sartorius) were coated with biotinylated CD117 ectodomain by dipping the biosensors into wells containing an optimized dilution of human or cyno CD117 ectodomain. After re-equilibrating the biosensor tips in assay buffer, the biosensors were dipped into supernatant containing the VHH antibodies to allow association between the antibodies and the CD117 ectodomain. Finally, the biosensors were dipped into the assay buffer. The VHH antibodies disassociated from the CD117 ectodomain if association occurred. The association and dissociation of each VHH antibody was characterized qualitatively to identify VHHs that could bind both human and cyno CD117 ectodomains.
For example, kinetics parameters of the top VHH antibodies for binding to human CD117 and cynomolgus monkey CD117 ectodomain were obtained from the Octet® analysis by Biolayer Interferometry as described above. A minimum of three concentrations of purified VHH antibodies were tested per ectodomain target. The Octet® software was used to perform a global kinetic fit across all concentrations using a 1:1 binding model. This allowed determination of the kinetic parameters, association rate (kₒₙ), dissociation rate (koff) and equilibrium constant (KD) for the 9 antibodies of interest. Total chi-squared (X²) was also examined to determine the goodness of fit for the software's kinetic model.

[2] = molecular target: T2, human CD117 on cells (SKMEL-3 cells, CD34+ HSC) (human, UniProt P10721 26-976); test: flow cytometry, skMEL-3 cells, monomeric Fc
T2 construct: whole, on cells; also called CD117 on cell surfaces; CD117+ cells

[3] = molecular target: T2, human CD117 on cells (SKMEL-3 cells, …); test: flow cytometry, CD34+ HSC, monomeric Fc
human CD117 ectodomain [4] = molecular target: T1, human CD117 ectodomain; test: ELISA, human CD117, monovalent Fc fusion
[5] = molecular target: cynomolgus monkey CD117 ectodomain (cynomolgus monkey); test: BLI (Octet), biotinylated ectodomain on SA biosensor, 1:1 global fit, monomeric Fc
[6] = molecular target: T3, truncated CD117 ectodomain, Domain 1 (UniProt P10721 26-112, limits assumed, biotinylated); test: BLI, truncated ectodomain on SA biosensor
T3 construct: domain: Domain 1; not shown: AviTag
Method: (§1) To identify the approximate binding epitopes of the VHH antibodies, truncated ectodomains were expressed as fusion polypeptides with an AviTag. Additionally, biotin is added to the protein during expression to allow capture of the material onto Streptavidin-coated (SA) biosensors. SA biosensors (Sartorius) were incubated with one of the truncated ectodomains. Full length CD117 ectodomain was used as a control. […] Except for P29 and P37, all others bind Domains 1-2 and Domains 1-3. Except for P37, all others bind Domains 1-4.

[7] = molecular target: T4, truncated CD117 ectodomain, Domains 1-3 (UniProt P10721 26-311, limits assumed, biotinylated); test: BLI, truncated ectodomain on SA biosensor
T4 construct: domain: Domains 1-3; not shown: AviTag
Method: as §1

[8] = molecular target: T5, truncated CD117 ectodomain, Domains 1-4 (UniProt P10721 26-410, limits assumed, biotinylated); test: BLI, truncated ectodomain on SA biosensor
T5 construct: domain: Domains 1-4; not shown: AviTag
Method: as §1

[9] = molecular target: T6, truncated CD117 ectodomain, Domains 1-2 (UniProt P10721 26-208, limits assumed, biotinylated); test: BLI, truncated ectodomain on SA biosensor
T6 construct: domain: Domains 1-2; not shown: AviTag
Method: as §1

T1 sequence (P10721 26-524): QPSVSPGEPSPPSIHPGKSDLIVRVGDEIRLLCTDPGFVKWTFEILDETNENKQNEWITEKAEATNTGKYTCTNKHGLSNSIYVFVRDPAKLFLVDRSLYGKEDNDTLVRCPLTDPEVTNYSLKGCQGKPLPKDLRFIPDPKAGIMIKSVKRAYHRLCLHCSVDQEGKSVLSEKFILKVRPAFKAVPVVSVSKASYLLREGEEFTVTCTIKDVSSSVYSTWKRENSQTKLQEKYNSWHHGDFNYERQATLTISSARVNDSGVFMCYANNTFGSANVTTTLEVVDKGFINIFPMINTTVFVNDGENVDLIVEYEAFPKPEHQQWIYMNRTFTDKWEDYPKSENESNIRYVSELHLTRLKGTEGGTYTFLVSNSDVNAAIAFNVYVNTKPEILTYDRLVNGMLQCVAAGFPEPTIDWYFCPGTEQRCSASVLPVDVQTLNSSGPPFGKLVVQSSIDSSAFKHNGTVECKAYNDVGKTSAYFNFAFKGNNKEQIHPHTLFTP
T2 sequence (P10721 26-976): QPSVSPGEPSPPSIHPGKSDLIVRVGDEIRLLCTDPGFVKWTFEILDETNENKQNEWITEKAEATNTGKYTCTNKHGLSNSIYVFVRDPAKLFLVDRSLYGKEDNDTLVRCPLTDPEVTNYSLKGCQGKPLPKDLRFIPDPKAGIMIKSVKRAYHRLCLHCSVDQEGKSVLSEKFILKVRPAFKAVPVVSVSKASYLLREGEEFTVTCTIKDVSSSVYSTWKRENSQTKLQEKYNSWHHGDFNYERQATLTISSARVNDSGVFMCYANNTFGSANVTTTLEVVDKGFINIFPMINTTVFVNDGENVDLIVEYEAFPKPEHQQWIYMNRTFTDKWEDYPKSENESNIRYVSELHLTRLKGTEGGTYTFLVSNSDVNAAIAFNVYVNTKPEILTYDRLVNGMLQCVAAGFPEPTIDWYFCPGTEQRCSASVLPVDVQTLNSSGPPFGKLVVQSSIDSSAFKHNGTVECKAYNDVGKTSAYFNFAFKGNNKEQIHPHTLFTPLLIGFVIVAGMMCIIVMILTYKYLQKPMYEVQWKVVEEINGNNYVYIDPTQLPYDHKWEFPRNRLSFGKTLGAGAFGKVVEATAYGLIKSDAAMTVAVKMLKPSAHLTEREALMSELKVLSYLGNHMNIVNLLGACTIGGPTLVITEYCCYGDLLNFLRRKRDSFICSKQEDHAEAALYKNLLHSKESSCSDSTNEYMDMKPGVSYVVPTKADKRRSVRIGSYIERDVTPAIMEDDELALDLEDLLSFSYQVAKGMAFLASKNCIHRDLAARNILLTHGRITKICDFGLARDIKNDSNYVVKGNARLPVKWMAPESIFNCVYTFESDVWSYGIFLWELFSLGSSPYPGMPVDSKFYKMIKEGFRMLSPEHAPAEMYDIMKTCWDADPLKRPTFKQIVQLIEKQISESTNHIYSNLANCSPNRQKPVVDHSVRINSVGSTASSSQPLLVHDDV
T4 sequence (P10721 26-311 limits assumed): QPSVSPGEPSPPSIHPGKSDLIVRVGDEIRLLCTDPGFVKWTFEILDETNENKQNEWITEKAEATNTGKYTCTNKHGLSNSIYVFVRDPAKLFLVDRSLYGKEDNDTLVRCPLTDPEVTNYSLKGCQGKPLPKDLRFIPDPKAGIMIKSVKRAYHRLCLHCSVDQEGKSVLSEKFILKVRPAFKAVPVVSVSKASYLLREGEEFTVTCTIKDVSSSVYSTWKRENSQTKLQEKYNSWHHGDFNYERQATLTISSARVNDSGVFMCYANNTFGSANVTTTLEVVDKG
T6 sequence (P10721 26-208 limits assumed): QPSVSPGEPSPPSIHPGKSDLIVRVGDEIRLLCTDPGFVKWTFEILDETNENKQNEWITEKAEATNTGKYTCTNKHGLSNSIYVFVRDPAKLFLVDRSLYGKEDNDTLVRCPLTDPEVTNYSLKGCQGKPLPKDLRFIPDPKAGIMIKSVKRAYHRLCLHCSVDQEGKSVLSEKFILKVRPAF
T3 sequence (P10721 26-112 limits assumed): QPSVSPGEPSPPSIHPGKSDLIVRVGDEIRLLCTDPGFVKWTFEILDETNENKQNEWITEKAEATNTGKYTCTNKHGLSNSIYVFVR
T5 sequence (P10721 26-410 limits assumed): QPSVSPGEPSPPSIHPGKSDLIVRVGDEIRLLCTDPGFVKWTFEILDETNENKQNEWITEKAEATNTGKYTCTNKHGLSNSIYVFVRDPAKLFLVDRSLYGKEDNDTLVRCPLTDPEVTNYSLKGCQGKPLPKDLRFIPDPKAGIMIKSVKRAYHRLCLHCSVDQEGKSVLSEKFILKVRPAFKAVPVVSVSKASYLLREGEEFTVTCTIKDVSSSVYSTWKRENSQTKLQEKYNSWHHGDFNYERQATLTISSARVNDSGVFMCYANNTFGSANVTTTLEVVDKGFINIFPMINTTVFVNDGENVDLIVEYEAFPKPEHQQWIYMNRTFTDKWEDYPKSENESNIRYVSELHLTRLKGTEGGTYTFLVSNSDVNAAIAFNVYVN

| Binder | Kd (human CD117 ectodomain [1]) [nM] | EC50 [2] [nM] | EC50 [3] [nM] | Kd (human CD117 ectodomain [4]) [nM] | Kd [5] [nM] | binding result [6] | binding result [7] | binding result [8] | binding result [9] |
| --- | --- | --- | --- | --- | --- | --- | --- | --- | --- |
| B1 | 7.42 | 3 | 4 | 0.52 | 1.62 | – | – | – | – |
| B2 | 2.89 | 10 | 30 | 1.91 | 7.02 | – | – | – | – |
| B3 | 28 | 20 | > 50 | 0.97 | 25 | – | – | – | – |
| B4 | 8.85 | 10 | 10 | 1 | 19 | – | – | – | – |
| B5 | – | – | – | – | – | no binding | no binding | no binding | no binding |
| B6 | – | – | – | – | – | no binding | no binding | – | no binding |
